Several values for one entry are separate records, joined by “and”; a condition that tells them apart may be missing. Identical values can stand only once.
B1: HSPB6 ACD (α-crystallin domain, residues 72-149) (domain or fragment, human, UniProt O14558 72-149, looked up)
chain: GHFSVLLDVKHFSPEEIAVKVVGEHVEVHARHEERPDEHGFVAREFHRRYRLPPGVDPAAVTSALSPEGVLSIQAAPA
notes: human small heat shock protein HSPB6, α-crystallin domain, residues 72-149; also called ACD dimer; isolated ACD
B2: 14-3-3-pB6 chimera (PKA-phosphorylated chimera of human 14-3-3σ(clu3)∆C and HSPB6 residues 12-153) (other)
chain: GPHMERASLIQKAKLAEQAERYEDMAAFMKGAVEKGEELSCEERNLLSVAYKNVVGGQRAAWRVLSSIEQKSNEEGSAAAGPEVREYREKVETELQGVCDTVLGLLDSHLIKEAGDAESRVFYLKMKGDYYRYLAEVATGDDKKRIIDSARSAYQEAMDISKKEMPPTNPIRLGLALNFSVFHYEIANSPEEAISLAKTTFDEAMADLHTLSEDSYKDSTLIMQLLRDNLTLWTGSGSLRRASAPLPGLSAPGRLFDQRFGEGLLEAELAALCPTTLAPYYLRAPSVALPVAQVPTDPGHFSVLLDVKHFSPEEIAVKVVGEHVEVHARHEERPDEHGFVAREFHRRYRLPPGVDPAAVTSALSPEGVLSIQAAPASAQA
modifications: phosphoserine at Ser16 of the HSPB6 part (phosphorylated by PKA)
notes: three extra residues left at the N-terminus after 3C cleavage; human 14-3-3σ, C-terminally truncated (14-3-3σ∆C), residues 1-231, with the surface entropy reduction 'clu3' replacements; linker; the full chimera 'followed the same principles' as CH1; human small heat shock protein HSPB6, residues 12-153 (out of 160): Ser16 phosphopeptide region, rest of the NTD and the α-crystallin domain; Could …
B3: unphosphorylated 14-3-3-B6 chimera (human 14-3-3σ(clu3)∆C and HSPB6 residues 12-153) (other)
chain: B2 chain
notes: three extra residues left at the N-terminus after 3C cleavage; human 14-3-3σ, C-terminally truncated (14-3-3σ∆C), residues 1-231, with the 'clu3' replacements; linker; the full chimera 'followed the same principles' as CH1; human small heat shock protein HSPB6, residues 12-153 (out of 160); also called unphosphorylated chimera; unphosphorylated version; source: E. coli BL21(DE3) without PKA, …
B4: pCH1 (phosphorylated peptidic chimera of 14-3-3σ(clu3)∆C with the HSPB6 phosphopeptide, residues 12-19) (other, human)
chain: GPHMERASLIQKAKLAEQAERYEDMAAFMKGAVEKGEELSCEERNLLSVAYKNVVGGQRAAWRVLSSIEQKSNEEGSAAAGPEVREYREKVETELQGVCDTVLGLLDSHLIKEAGDAESRVFYLKMKGDYYRYLAEVATGDDKKRIIDSARSAYQEAMDISKKEMPPTNPIRLGLALNFSVFHYEIANSPEEAISLAKTTFDEAMADLHTLSEDSYKDSTLIMQLLRDNLTLWTGSGSLRRASAPL
modifications: phosphoserine at Ser16 of the HSPB6 peptide (phosphorylated by PKA)
notes: three extra residues left at the N-terminus after 3C cleavage; human 14-3-3σ, C-terminally truncated, residues 1-231, with the 'clu3' replacements; linker; also called phosphorylated CH1; 14-3-3-phosphopeptide chimera; not shown: His6, N-terminal, cleaved

Tests used:
[1] = biological target: 14-3-3σ∆C (C-terminally truncated human 14-3-3σ, residues 1-231) (human) (UniProt P31947); test: SEC; fluorescence-assisted size-exclusion spectrochromatography, Superdex 200 Increase 5/150, SEC buffer; detection at 230 nm absorbance and Trp fluorescence (excitation 298 nm, emission 360 nm); proteins alone and mixed
[2] = biological target: the molecule itself; test: as above
[3] = biological target: the molecule itself; test: SEC; same column and buffer as a1; higher loaded protein concentrations (second peak appears); apparent MW from column calibration; dimer to tetramer
[4] = biological target: the molecule itself; test: SEC; Superdex 200 Increase 5/150, 0.45 ml/min; 20 mM Tris-HCl pH 7.6, 150 mM NaCl, 0.5 mM EDTA, 1 mM DTT, 3% glycerol; low loaded protein concentration; apparent MW from column calibration

stoichiometry N [1]	Molecule	stoichiometry N [2]	stoichiometry N [3]	stoichiometry N [4]
2	14-3-3σ∆C (C-terminally truncated human 14-3-3σ, residues 1-231) (from UniProt P31947 1-231) (domain or fragment)	–	–	–
–	B1	2	–	–
–	B2	–	4	2
–	B3	–	4	2
–	B4	4 and 2	–	–

Reference: PMC6802120, “Concatenation of 14-3-3 with partner phosphoproteins as a tool to study their interaction” (Scientific Reports, 2019)
